Results published in the supplement of paper PMC5998384.

Legend:
HeLa Kyoto [1] = test: solubility change mitosis vs G1/S (difference of NP-40 vs SDS log2 ratios) (log2 ratio difference); higher = more soluble in mitosis
HeLa Kyoto [2] = test: solubility in G1/S (NP-40 vs SDS abundance) (log2 ratio); higher = more soluble; conditions: cell cycle stage: G1/S
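Wherever solubility change mitosis vs G1/S (difference of NP-40 vs SDS log2 ratios) is given: synchronized HeLa Kyoto cells (double thymidine block for G1/S, nocodazole release for mitosis), protein amounts in NP-40 versus SDS lysates quantified by mass spectrometry, three biological replicates.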
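Wherever solubility in G1/S (NP-40 vs SDS abundance) is given: HeLa Kyoto cells arrested at G1/S by double thymidine block, proteins quantified by TMT10plex mass spectrometry in mild NP-40 versus SDS extracts, three biological replicates.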

Substance | solubility change mitosis (log2) (HeLa Kyoto [1]) | solubility in G1/S (log2) (HeLa Kyoto [2])
MPRCPAGAMDEGPVDLRTRPKAAGLPGAALPLRKRPLRAPSPEPAAPRGAAGLVVPLDPLRGGCDLPAVPGPPHGLARPEALYYPGALLPLYPTRAMGSPFPLVNLPTPLYPMMCPMEHPLSADIAMATRADEDGDTPLHIAVVQGNLPAVHRLVNLFQQGGRELDIYNNLRQTPLHLAVITTLPSVVRLLVTAGASPMALDRHGQTAAHLACEHRSPTCLRALLDSAAPGTLDLEARNYDGLTALHVAVNTECQETVQLLLERGADIDAVDIKSGRSPLIHAVENNSLSMVQLLLQHGANVNAQMYSGSSALHSASGRGLLPLVRTLVRSGADSSLKNCHNDTPLMVARSRRVIDILRGKATRPASTSQPDPSPDRSANTSPESSSRLSSNGLLSASPSSSPSQSPPRDPPGFPMAPPNFFLPSPSPPAFLPFAGVLRGPGRPVPPSPAPGGS [BCL3] | -0.154 | 0.0652
PPP3R1 | -0.104 | 0.385
MAAFGRQVLDWHRLIPLTWACMARQTPHLGEQRRTTASLLRKLTTASNGGVIEELSCVRSNNYVQEPECRRNLVQCLLEKQGTPVVQGSLELERVMSSLLDMGFSNAHINELLSVRRGASLQQLLDIISEFILLGLNPEPVCVVLKKSPQLLKLPIMQMRKRSSYLQKLGLGEGKLKRVLYCCPEIFTMRQQDINDTVRLLKEKCLFTVQQVTKILHSCPSVLREDLGQLEYKFQYAYFRMGIKHPDIVKSEYLQYSLTKIKQRHIYLERLGRYQTPDKKGQTQIPNPLLKDILRVSEAEFLARTACTSVEEFQVFKKLLAREEEESESSTSDDKRASLDEDEDDDDEEDNDEDDNDEDDDDEDDDEAEDNDEDEDDDEEE [MTERF4] | -0.0189 | 0.434
MHPGGGPSRAERLELGLGRERPAKAIFLHRRPGEGGGRERCLRCGHVCVRRGPGPREAVPSGRPRPDTLTPPWVRQRAVTGTFCASWTPLRNRRAQRMATDMQRKRSSECLDGTLTPSDGQSMERAESPTPGMAQGMEPGAGQEGAMFVHARSYEDLTESEDGAASGDSHKEGTRGPPPLPTDMRQISQDFSELSTQLTGVARDLQEEMLPGSSEDWLEPPGAVGRPATEPPREGTTEGDEEDATEAWRLHQKHVFVLSEAGKPVYSRYGSEEALSSTMGVMVALVSFLEADKNAIRSIHADGYKVVFVRRSPLVLVAVARTRQSAQELAQELLYIYYQILSLLTGAQLSHIFQQKQNYDLRRLLSGSERITDNLLQLMARDPSFLMGAARCLPLAAAVRDTVSASLQQARARSLVFSILLARNQLVALVRRKDQFLHPIDLHLLFNLISSSSSFREGEAWTPVCLPKFNAAGFFHAHISYLEPDTDLCLLLVSTDREDFFAVSDCRRRFQERLRKRGAHLALREALRTPYYSVAQVGIPDLRHFLYKSKSSGLFTSPEIEAPYTSEEEQERLLGLYQYLHSRAHNASRPLKTIYYTGPNENLLAWVTGAFELYMCYSPLGTKASAVSAIHKLMRWIRKEEDRLFILTPLTY [MON1A] | -0.081 | 0.0361
MIEVVCNDRLGKKVRVKCNTDDTIGDLKKLIAAQTGTRWNKIVLKKWYTIFKDHVSLGDYEIHDGMNLELYYQ [UBL5] | 0.566 | -1.06
MLRWTRAWRLPREGLGPHGPSFARVPVAPSSSSGGRGGAEPRPLPLSYRLLDGEAALPAVVFLHGLFGSKTNFNSIAKILAQQTGRRVLTVDARNHGDSPHSPDMSYEIMSQDLQDLLPQLGLVPCVVVGHSMGGKTAMLLALQRPELVERLIAVDISPVESTGVSHFATYVAAMRAINIADELPRSRARKLADEQLSSVIQDMAVRQHLLTNLVEVDGRFVWRVNLDALTQHLDKILAFPQRQESYLGPTLFLLGGNSQFVHPSHHPEIMRLFPRAQMQTVPNAGHWIHADRPQDFIAAIRGFLV [ABHD11] | 0.0439 | 0.492
MMAGCGEIDHSINMLPTNRKANESCSNTAPSLTVPECAICLQTCVHPVSLPCKHVFCYLCVKGASWLGKRCALCRQEIPEDFLDKPTLLSPEELKAASRGNGEYAWYYEGRNGWWQYDERTSRELEDAFSKGKKNTEMLIAGFLYVADLENMVQYRRNEHGRRRKIKRDIIDIPKKGVAGLRLDCDANTVNLARESSADGADSVSAQSGASVQPLVSSVRPLTSVDGQLTSPATPSPDASTSLEDSFAHLQLSGDNTAERSHRGEGEEDHESPSSGRVPAPDTSIEETESDASSDSEDVSAVVAQHSLTQQRLLVSNANQTVPDRSDRSGTDRSVAGGGTVSVSVRSRRPDGQCTVTEV [RNF146] | -0.158 | -0.244
MGSAFERVVRRVVQELDHGGEFIPVTSLQSSTGFQPYCLVVRKPSSSWFWKPRYKCVNLSIKDILEPDAAEPDVQRGRSFHFYDAMDGQIQGSVELAAPGQAKIAGGAAVSDSSSTSMNVYSLSVDPNTWQTLLHERHLRQPEHKVLQQLRSRGDNVYVVTEVLQTQKEVEVTRTHKREGSGRFSLPGATCLQGEGQGHLSQKKTVTIPSGSTLAFRVAQLVIDSDLDVLLFPDKKQRTFQPPATGHKRSTSEGAWPQLPSGLSMMRCLHNFLTDGVPAEGAFTEDFQGLRAEVETISKELELLDRELCQLLLEGLEGVLRDQLALRALEEALEQGQSLGPVEPLDGPAGAVLECLVLSSGMLVPELAIPVVYLLGALTMLSETQHKLLAEALESQTLLGPLELVGSLLEQSAPWQERSTMSLPPGLLGNSWGEGAPAWVLLDECGLELGEDTPHVCWEPQAQGRMCALYASLALLSGLSQEPH [GSDMD] | -0.218 | 0.121
VPS13B | -0.0582 | -0.247
BAHCC1 | 0.257 | -0.00383
MQAKKRYFILLSAGSCLALLFYFGGLQFRASRSHSRREEHSGRNGLHHPSPDHFWPRFPDALRPFVPWDQLENEDSSVHISPRQKRDANSSIYKGKKCRMESCFDFTLCKKNGFKVYVYPQQKGEKIAESYQNILAAIEGSRFYTSDPSQACLFVLSLDTLDRDQLSPQYVHNLRSKVQSLHLWNNGRNHLIFNLYSGTWPDYTEDVGFDIGQAMLAKASISTENFRPNFDVSIPLFSKDHPRTGGERGFLKFNTIPPLRKYMLVFKGKRYLTGIGSDTRNALYHVHNGEDVVLLTTCKHGKDWQKHKDSRCDRDNTEYEKYDYREMLHNATFCLVPRGRRLGSFRFLEALQAACVPVMLSNGWELPFSEVINWNQAAVIGDERLLLQIPSTIRSIHQDKILALRQQTQFLWEAYFSSVEKIVLTTLEIIQDRIFKHISRNSLIWNKHPGGLFVLPQYSSYLGDFPYYYANLGLKPPSKFTAVIHAVTPLVSQSQPVLKLLVAAAKSQYCAQIIVLWNCDKPLPAKHRWPATAVPVVVIEGESKVMSSRFLPYDNIITDAVLSLDEDTVLSTTEVDFAFTVWQSFPERIVGYPARSHFWDNSKERWGYTSKWTNDYSMVLTGAAIYHKYYHYLYSHYLPASLKNMVDQLANCEDILMNFLVSAVTKLPPIKVTQKKQYKETMMGQTSRASRWADPDHFAQRQSCMNTFASWFGYMPLIHSQMRLDPVLFKDQVSILRKKYRDIERL [EXT1] | -0.163 | -0.14
RLF | 0.617 | -0.887
MAEAVERTDELVREYLLFRGFTHTLRQLDAEIKADKEKGFRVDKIVDQLQQLMQVYDLAALRDYWSYLERRLFSRLEDIYRPTIHKLKTSLFRFYLVYTIQTNRNDKAQEFFAKQATELQNQAEWKDWFVLPFLPSPDTNPTFATYFSRQWADTFIVSLHNFLSVLFQCMPVPVILNFDAECQRTNQVQEENEVLRQKLFALQAEIHRLKKEEQQPEEEEALVQHKLPPYVSNMDRLGDSELAMVCSQRNASLSQSPRVGFLSSLLPQSKKSPSRLSPAQGPPQPQSSAKKESFGGQGTKGKDPTSGAKDGKSLLSGLATGESGWSQHRQRRLQDHGKERKELFSTTTSQCAEKKPEASGPEAEPCPELHTEPVEPLTRASSAGPEGGGVRPEQPFIVLGQEEYGEHHSSIMHCRVDCSGRRVASLDVDGVIKVWSFNPIMQTKASSISKSPLLSLEWATKRDRLLLLGSGVGTVRLYDTEAKKNLCEININDNMPRILSLACSPNGASFVCSAAAPSLTSQVDFSAPDIGSKGMNQVPGRLLLWDTKTMKQQLQFSLDPEPIAINCTAFNHNGNLLVTGAADGVIRLFDMQQHECAMSWRAHYGEVYSVEFSYDENTVYSIGEDGKFIQWNIHKSGLKVSEYSLPSDATGPFVLSGYSGYKQVQVPRGRLFAFDSEGNYMLTCSATGGVIYKLGGDEKVLESCLSLGGHRAPVVTVDWSTAMDCGTCLTASMDGKIKLTTLLAHKA [WDR91] | 0.0607 | -0.122
MAELYVKPGNKERGWNDPPQFSYGLQTQAGGPRRSLLTKRVAAPQDGSPRVPASETSPGPPPMGPPPPSSKAPRSPPVGSGPASGVEPTSFPVESEAVMEDVLRPLEQALEDCRGHTRKQVCDDISRRLALLQEQWAGGKLSIPVKKRMALLVQELSSHRWDAADDIHRSLMVDHVTEVSQWMVGVKRLIAEKRSLFSEEAANEEKSAATAEKNHTIPGFQQAS [SRA1] | 0.9 | 0.0612
MAAAADSFSGGPAGVRLPRSPPLKVLAEQLRRDAEGGPGAWRLSRAAAGRGPLDLAAVWMQGRVVMADRGEARLRDPSGDFSVRGLERVPRGRPCLVPGKYVMVMGVVQACSPEPCLQAVKMTDLSDNPIHESMWELEVEDLHRNIP [RMI2] | 0.168 | 0.374
MPPKKDVPVKKPAGPSISKPAAKPAAAGAPPAKTKAEPAVPQAPQKTQEPPVDLSKVVIEFNKDQLEEFKEAFELFDRVGDGKILYSQCGDVMRALGQNPTNAEVLKVLGNPKSDELKSRRVDFETFLPMLQAVAKNRGQGTYEDYLEGFRVFDKEGNGKVMGAELRHVLTTLGEKMTEEEVETVLAGHEDSNGCINYEAFLKHILSV [MYL6B] | 0.317 | -0.063
MPIPPPPPPPPGPPPPPTFHQANTEQPKLSRDEQRGRGALLQDICKGTKLKKVTNINDRSAPILEKPKGSSGGYGSGGAALQPKGGLFQGGVLKLRPVGAKDGSENLAGKPALQIPSSRAAAPRPPVSAASGRPQDDTDSSRASLPELPRMQRPSLPDLSRPNTTSSTGMKHSSSAPPPPPPGRRANAPPTPLPMHSSKAPAYNREKPLPPTPGQRLHPGREGPPAPPPVKPPPSPVNIRTGPSGQSLAPPPPPYRQPPGVPNGPSSPTNESAPELPQRHNSLHRKTPGPVRGLAPPPPTSASPSLLSNRPPPPARDPPSRGAAPPPPPPVIRNGARDAPPPPPPYRMHGSEPPSRGKPPPPPSRTPAGPPPPPPPPLRNGHRDSITTVRSFLDDFESKYSFHPVEDFPAPEEYKHFQRIYPSKTNRAARGAPPLPPILR [WIPF2] | 1.2 | -0.764
MASSEVARHLLFQSHMATKTTCMSSQGSDDEQIKRENIRSLTMSGHVGFESLPDQLVNRSIQQGFCFNILCVGETGIGKSTLIDTLFNTNFEDYESSHFCPNVKLKAQTYELQESNVQLKLTIVNTVGFGDQINKEESYQPIVDYIDAQFEAYLQEELKIKRSLFTYHDSRIHVCLYFISPTGHSLKTLDLLTMKNLDSKVNIIPVIAKADTVSKTELQKFKIKLMSELVSNGVQIYQFPTDDDTIAKVNAAMNGQLPFAVVGSMDEVKVGNKMVKARQYPWGVVQVENENHCDFVKLREMLICTNMEDLREQTHTRHYELYRRCKLEEMGFTDVGPENKPVSVQETYEAKRHEFHGERQRKEEEMKQMFVQRVKEKEAILKEAERELQAKFEHLKRLHQEERMKLEEKRRLLEEEIIAFSKKKATSEIFHSQSFLATGSNLRKDKDRKNSNFL [SEPT10] | -0.0981 | -0.132
